By Kd is commonly meant the equilibrium constant for the complex coming apart. Low values mean a tighter complex, high ones a looser complex.

B1: Macrocyclic peptide of Example 2-55 (SEQ ID No. 56) (peptide)
peptide: {CH2CO}-[MeKCOpipzaa″][NMeA]D[NMeY][Phe(4-COOH)][TMe]I[AEF][NMeY]G[3Pal(6-Ph)][NMeC]-NH2
modifications: thioether N-12
SMILES: CC[C@H](C)[C@@H]1NC(=O)[C@H]([C@@H](C)OC)NC(=O)[C@H](Cc2ccc(C(=O)O)cc2)NC(=O)[C@H](Cc2ccc(O)cc2)N(C)C(=O)[C@H](CC(=O)O)NC(=O)[C@H](C)N(C)C(=O)[C@H](CCCCNC(=O)N2CCN(CC(=O)O)CC2)N(C)C(=O)CSC[C@@H](C(N)=O)N(C)C(=O)[C@H](Cc2ccc(-c3ccccc3)nc2)NC(=O)CNC(=O)[C@H](Cc2ccc(O)cc2)N(C)C(=O)[C@H](Cc2ccc(OCCN)cc2)NC1=O
B2: Macrocyclic peptide of Example 2-53 (SEQ ID No. 28) (peptide)
peptide: {CH2CO}-[NMeQ][NMeQ]D[NMeQ][Phe(4-COOH)]II[AEF][NMe2Nal]G[Phe(4-(1-Me-pyrazol-4-yl))][NMeC]-NH2
modifications: thioether N-12
SMILES: CC[C@H](C)[C@@H]1NC(=O)[C@H](Cc2ccc(C(=O)O)cc2)NC(=O)[C@H](CCC(N)=O)N(C)C(=O)[C@H](CC(=O)O)NC(=O)[C@H](CCC(N)=O)N(C)C(=O)[C@H](CCC(N)=O)N(C)C(=O)CSC[C@@H](C(N)=O)N(C)C(=O)[C@H](Cc2ccc(-c3cnn(C)c3)cc2)NC(=O)CNC(=O)[C@H](Cc2ccc3ccccc3c2)N(C)C(=O)[C@H](Cc2ccc(OCCN)cc2)NC(=O)[C@H]([C@@H](C)CC)NC1=O
B3: Macrocyclic peptide of Example 2-56 (SEQ ID No. 27) (peptide)
peptide: {CH2CO}-[NMeQ][NMeQ]D[NMeQ][AEF]II[Phe(4-CH2COOH)][NMe2Nal]G[Phe(4-(1-Me-pyrazol-4-yl))][NMeC]-NH2
modifications: thioether N-12
SMILES: CC[C@H](C)[C@@H]1NC(=O)[C@H](Cc2ccc(OCCN)cc2)NC(=O)[C@H](CCC(N)=O)N(C)C(=O)[C@H](CC(=O)O)NC(=O)[C@H](CCC(N)=O)N(C)C(=O)[C@H](CCC(N)=O)N(C)C(=O)CSC[C@@H](C(N)=O)N(C)C(=O)[C@H](Cc2ccc(-c3cnn(C)c3)cc2)NC(=O)CNC(=O)[C@H](Cc2ccc3ccccc3c2)N(C)C(=O)[C@H](Cc2ccc(CC(=O)O)cc2)NC(=O)[C@H]([C@@H](C)CC)NC1=O

Starred links: 1 amine or outer side, 2 acyl side, 3 side chain; linkers in the order of their positions; H or OH if unused. Positions of bridges follow the written chain, without caps; N, C: chain ends. Non-standard residues stand in square brackets, D forms with d. Primed or numbered codes have the meaning given here. MeKCOpipzaa″ = (2S)-6-{[4-(carboxymethyl)piperazine-1-carbonyl]amino}-2-(methylamino)hexanoic acid, CN([C@@H](CCCCNC(=O)N1CCN(CC(=O)[*:3])CC1)C(=O)[*:2])[*:1]; MeA4paa = 3-(1-(carboxymethyl)piperidin-4-yl)-2-(methylamino)propanoic acid, CN([C@@H](CC1CCN(CC(=O)[*:3])CC1)C(=O)[*:2])[*:1]; MeHseMe(3) = N-methyl-O-methyl-homoserine, 4-methoxy-2-(methylamino)butanoic acid, COCC[C@@H](C(=O)[*:2])N(C)[*:1]; TMe(3) = O-methyl-L-threonine ((2S,3R)-2-amino-3-methoxybutanoic acid), CO[C@H](C)[C@H](N[*:1])C(=O)[*:2]; Hgn = 2,6-diamino-6-oxohexanoic acid, NC(=O)CCC[C@H](N[*:1])C(=O)[*:2]; Phe(4-(1-Me-pyrazol-4-yl)) = Cn1cc(-c2ccc(C[C@H](N)C(=O)O)cc2)cn1; TMe = O-methyl-L-threonine, CO[C@H](C)[C@H](N[*:1])C(=O)[*:2]; Phe(4-CH2COOH) = N[C@@H](Cc1ccc(CC(=O)O)cc1)C(=O)O; 3Pal(6-Ph) = N[C@@H](Cc1ccc(-c2ccccc2)nc1)C(=O)O; Phe(4-COOH) = N[C@@H](Cc1ccc(C(=O)O)cc1)C(=O)O; NMe2Nal = CN[C@@H](Cc1ccc2ccccc2c1)C(=O)O; AEF = NCCOc1ccc(C[C@H](N)C(=O)O)cc1; NMeY = CN[C@@H](Cc1ccc(O)cc1)C(=O)O; NMeQ = CN[C@@H](CCC(N)=O)C(=O)O; NMeC = CN[C@@H](CS)C(=O)O; NMeA = CN[C@@H](C)C(=O)O; MeK = methyl-L-lysine

This experiment has as its target T1, Human Glypican3-Fc (ACRO Biosystems, GP3-H5258) (human, UniProt P51654 25-559).
T1 construct: Bought fusion protein, captured in Methods B-2, B-3 and B-4; Catalogue number is printed only in Method B-2; not shown: Fc part of the bought fusion
Description: SPR (Biacore T200), Method B-3: Glypican3-Fc captured on Protein A chip, peptide as analyte. Here is the method:
A Protein A sensor chip (Cytiva) was inserted into a Biacore T200 (Cytiva), priming was performed three times with a running buffer: HBS-P+, pH 7.4 (Cytiva), and equilibration was carried out at a flow rate of 30 μL/min. Glypican3-Fc was allowed to react for 60 seconds at a flow rate of 10 μL/min. After capturing human Glypican3-Fe, a peptide solution prepared to 10 mM in DMSO solution was diluted with a running buffer to a final concentration of 10 μM. […] Using the above samples, peptide kinetics for Glypican3 was obtained by SPR measurement. Kinetics evaluation of Glypican3 was performed by SPR measurements at a flow rate of 10 LL/min, setting the association time to 120 seconds and the disassociation time to 600 seconds.
The obtained data by Method B-1, Method B-2, Method B-3 and Method B-4 were analyzed by follow. Single Cycle Kinetics was used as the kinetics evaluation model, and curve fitting was performed using Biacore T200 Evaluation Software Version 3.0 (Cytiva).
Turning to {CH2CO}-[MeK][NMeQ][Hgn][NMeQ][Phe(4-COOH)][TMe(3)]IY[NMe2Nal]G[Phe(4-(1-Me-pyrazol-4-yl))][NMeC]-NH2 (thioether N-12) [Macrocyclic peptide of Example 2-54 (SEQ ID No. 29)], the dissociation constant Kd turned out to be 0.1 nM.

Take {CH2CO}-[MeK][MeHseMe(3)]D[NMeQ][Phe(4-COOH)]II[Phe(4-CH2COOH)][NMe2Nal]G[Phe(4-(1-Me-pyrazol-4-yl))][NMeC]-NH2 (thioether N-12) [Macrocyclic peptide of Example 2-48 (SEQ ID No. 22)]: the Kd worked out at 0.5 nM.

With B1, the Kd is 5.3 nM.

The molecule {CH2CO}-[MeK][NMeQ]D[MeA4paa][Phe(4-COOH)][TMe(3)]I[Phe(4-CH2COOH)][NMe2Nal]G[Phe(4-(1-Me-pyrazol-4-yl))][NMeC]-NH2 (thioether N-12) [Macrocyclic peptide of Example 2-51 (SEQ ID No. 25)] displayed a Kd of 2.5 nM.

With {CH2CO}-[NMeQ][NMeQ]D[MeK][Phe(4-COOH)]II[Phe(4-CH2COOH)][NMe2Nal]G[Phe(4-(1-Me-pyrazol-4-yl))][NMeC]-NH2 (thioether N-12) [Macrocyclic peptide of Example 2-52 (SEQ ID No. 26)], the equilibrium dissociation constant (Kd) turned out to be 1.6 nM.

With B2, the dissociation constant Kd came to 1 nM.

Take B3: the Kd is 7.9 nM.

Source of the values: patent US20260241049A1, “Radiopharmaceutical Compositions Targeting Glypican-3 and Uses Thereof” (RayzeBio, Inc., priority 2023, published 2026).
